Patent US20150118213A1 (OMRIX BIOPHARMACEUTICALS, published 2015)
Bridges are numbered along the chain shown (N, C = ends). Where no end group is shown, it is not given here.

T1: Fluorescein-labeled cyclic gamma-loop derived peptide (disulfide 1-12; also: fluorescein label, site not given here)
T1 construct: also called fluorescent gamma loop peptide
T1 peptide: CKETWTANVGKC


Assays:
[1] = target: T1, Fluorescein-labeled cyclic gamma-loop …; experiment: peptide microarray, immobilised 15-mer probed with fluorescein-labelled cyclic gamma-loop peptide; fluorescence scale 0-65535
Text: Peptides were synthesized using SPOT synthesis (Wenschuh H, et al. (2000). Coherent membrane supports for parallel microsynthesis and screening of bioactive peptides. Biopolymers 55:188-206) and were chemoselectively immobilized onto functionalized glass slides as described (Panse S, et al. (2004) Profiling of generic anti-phosphopeptide antibodies and kinases with peptide microarrays using radioactive and fluorescence-based assays. Mol Divers 8:291-299.2.). Each peptide was printed in triplicates onto the microarray. For binding studies, 100 ng of purified thrombin (Omrix biopharmaceuticals) were directly labeled with DyLight 650 (DyLight® Microscale Antibody Labeling Kits, Thermo Scientific, #84536) and diluted in blocking buffer (SuperBlockT20 (TBS) Blocking Buffer, Thermo Scientific, #37536). The microarrays were incubated with 10 μg/ml DyLight 650-Thrombin or a Fluorescein-labeled cyclic gamma-loop derived peptide for one hour at 30° C. in a HS4800 microarray processing station (Tecan) (Masch A, et al., (2010) Antibody signatures defined by high-content peptide microarray analysis. Methods Mol Biol 669:161-172).
Microarrays were washed with 0.1% Tween-20 in 1×TBS followed by 0.05% Tween-20 in 0.1×SSC and dried in a stream of nitrogen. Each microarray was scanned using GenePix Autoloader 4200AL (Molecular Devices, Pixel size: 10 μm). Signal intensities were evaluated using spot recognition software Genepix Pro 7.0 analysis software (Molecular Devices). For each peptide, the mean signal intensity of the three triplicates was extracted. Further evaluation and representation of results was performed using the statistical computing and graphics software R (Version 2.11.1, www.r-project.org).
One array included peptides based on the thrombin sequence. Any peptide isolated from this library may reflect possible regions in the thrombin protein that may interact with the gamma loop. […] The fluorescence for the strongest binding candidates (hits) was quantified on an arbitrary scale of 0-65535 (2¹⁶). Thrombin activity was assessed as described in Example 1.

[2] = target: thrombin (aqueous liquid purified and concentrated thrombin) (UniProt P00734 44-622; P00734 44-622); experiment: cell-based or functional assay

Binder	Binding intensity of gamma loop [1] [arbitrary units]	inhibition of thrombin clotting activity at 0.5 mM peptide [2] [%]
WCYVAGKPGDFGYCD (15-mer from the thrombin derived peptide array; also called thrombin derived peptide Thr-069) [Thr_069]	50600	–
CKETWTANVGKC (disulfide 1-12) [cyclic gamma peptide]	–	~7
NITRSGIESQLWRSR (Thrombin derived 15-mer in which Cysteine residues have been replaced by Serine) [Thr_031_CS]	40800	–
SHNQRFVTYLGSKLG (15-mer from the random peptide array; also called Rnd155; Random2) [Rnd_inter_155]	19500	–

Further lines, results first:

Binding intensity of gamma loop [1] [arbitrary units]	inhibition of thrombin clotting activity at 0.5 mM peptide [2] [%]	Binder
32800	–	ISMLEKIYIHPRYNW (15-mer from the thrombin derived peptide array) [Thr_111]
26600	–	LGNKKFVSGSRFVST (15-mer from the random peptide array; also called Rnd316; Rnd 316) [Rnd_inter_316]
25300	–	RIRITDNMFSAGYKP (Thrombin derived 15-mer in which Cysteine residues have been replaced by Serine) [Thr_136_CS]
35100	–	SGIESQLWRSRYPHK (Thrombin derived 15-mer in which Cysteine residues have been replaced by Serine) [Thr_032_CS]
–	~20	KETWTANVGK [linear gamma peptide (SEQ ID NO:1)]
